Reference: paper PMC10713829 (Nature Communications, 2023)
Peptide text beside a SMILES is read from it.

Tests used:
[1] = target: T1, HLA-A*01:01/hβ2m (Homo sapiens, UniProt P04439, A114D/A174V/A182V/D101N/D185E/E176A/E190D/L180R/Q94H/R68K/S129P/T187R/V100A/V91M/W191G); assay: Hydrogen-deuterium exchange mass spectrometry (HDX-MS) of empty and peptide-loaded complexes; conditions: for Average % deuterium uptake: 600s
T1 construct: BirA substrate peptide (biotinylation tag, […]), seen only in the HDX-MS peptide map (C); made in house

[2] = target: T2, HLA-A*01:01/hβ2m (Homo sapiens, UniProt P04439, /R68K/S129P/T187R/V100A/V91M/W191G); assay: Fluorescence anisotropy competition with TAMRA-NRAS^Q61K; format: binding
T2 construct: BirA substrate peptide (biotinylation tag, […]), seen only in the HDX-MS peptide map (C); made in house
Procedure: TAMRA association with K61 was modeled to not disrupt interaction with the HLA-A*01:01 groove because K61 is solvent-exposed. […] NRAS peptides were prepared by chemical synthesis (GenScript, Piscataway, USA). […] Data was recorded on a SpectraMax iD5 plate reader with an excitation filter of λex = 531 nm and an emission filter of λem = 595 nm with an PMT gain set to high, an integration time of 1200 msec and read height 0.5 mm. Each experiment was performed in triplicate (n = 3) and is representative of at least two independent experiments. Experimental values were subtracted from background r values obtained from incubation of TAMRA-NRAS^Q61K alone. […] IC50 values were obtain by fitting to a simple single-site (one phase association) model with DynaFit (http://www.biokin.com/dynafit).

[3] = fragment ASGSHSMRY 2-10, charge 2
[4] = fragment ASGSHSMRY 2-10, charge 3
[5] = fragment ASGSHSMRYF 2-11, charge 2

| Compound | % deuterium uptake of peptide fragments corresponding to the NRAS peptide ([1]; HDX-MS of peptide/HLA-A*01:01/hβ2m, back-exchange corrected, pD 6.5, 25 °C, up to 600 s, biological triplicates) | Average % deuterium uptake ([1]; fragment ASGSHSMRY 2-10, charge 1) | Average % deuterium uptake [1, 3] | Average % deuterium uptake [1, 4] | Average % deuterium uptake [1, 5] | deuterium uptake of the HLA-A*01:01 α2-1 helix (residues 139–155) in the peptide-loaded complex ([1]; HDX-MS, back-exchange corrected, pD 6.5, 25 °C, comparison among peptide-loaded samples) | IC50 [2] |
| --- | --- | --- | --- | --- | --- | --- | --- |
| NRAS^Q61L: NRAS55-64 neoepitope peptide with Q61L mutation (ILDTAGLEEY) |  |  | 83.6219% | 84.5527% | 77.0018% | significantly reduced deuterium uptake |  |
| CC[C@H](C)[C@H](N)C(=O)N[C@@H](CC(C)C)C(=O)N[C@@H](CC(=O)O)C(=O)N[C@H](C(=O)N[C@@H](C)C(=O)NCC(=O)N[C@@H](CCC(N)=O)C(=O)N[C@@H](CCC(=O)O)C(=O)N[C@@H](CCC(=O)O)C(=O)N[C@@H](Cc1ccc(O)cc1)C(=O)O)[C@@H](C)O [Q61] (H-ILDTAGQEEY-OH) |  |  |  |  |  |  | 278 ± 32 nM |
| CC[C@H](C)[C@H](N)C(=O)N[C@@H](CC(C)C)C(=O)N[C@@H](CC(=O)O)C(=O)N[C@H](C(=O)N[C@@H](C)C(=O)NCC(=O)N[C@@H](CCCCN)C(=O)N[C@@H](CCC(=O)O)C(=O)N[C@@H](CCC(=O)O)C(=O)N[C@@H](Cc1ccc(O)cc1)C(=O)O)[C@@H](C)O [NRAS^Q61K] |  |  |  |  |  |  | 260 nM |

The next lines start with results.

| % deuterium uptake of peptide fragments corresponding to the NRAS peptide ([1]; HDX-MS of peptide/HLA-A*01:01/hβ2m, back-exchange corrected, pD 6.5, 25 °C, up to 600 s, biological triplicates) | Average % deuterium uptake ([1]; fragment ASGSHSMRY 2-10, charge 1) | Average % deuterium uptake [1, 3] | Average % deuterium uptake [1, 4] | Average % deuterium uptake [1, 5] | deuterium uptake of the HLA-A*01:01 α2-1 helix (residues 139–155) in the peptide-loaded complex ([1]; HDX-MS, back-exchange corrected, pD 6.5, 25 °C, comparison among peptide-loaded samples) | Compound | IC50 [2] |
| --- | --- | --- | --- | --- | --- | --- | --- |
| approx. 75% | 85.9593% | 85.2218% | 85.2836% | 76.8148% |  | NRAS^Q61H: NRAS55-64 neoepitope peptide with Q61H mutation (ILDTAGHEEY) |  |
|  |  | 83.2364% | 83.3198% | 78.2896% |  | NRAS^Q61R: NRAS55-64 neoepitope peptide with Q61R mutation (ILDTAGREEY) |  |
